Data taken from patent US20120128639A1, “In Vitro Production Of Oligodendrocytes From Human Umbilical Cord Stem Cells” (UNIVERSITY OF CENTRAL FLORIDA RESEARCH FOUNDATION, INC., priority 2009, published 2012).

Test system: human multipotent progenitor cells (MLPCs) from umbilical cord
Conditions: 3D environment; presence or absence in medium
Method: MLPCs were seeded on DETA-coated glass coverslips (18 mm) at a density of 4×10^3 cells/cm^2 in growth medium. After 3 days, at about 60% confluency, cells were incubated for 24 hours in pre-induction medium, consisting of DMEM, 15% FBS. FGF-2, EGF (20 ng/ml each, R & D Systems, Minneapolis, Minn.) and PDGF-AA (10 ng/ml, Chemicon International, Temecula, Calif.). To initiate differentiation, the pre-induction medium was removed, the cells were washed 2× with Hanks' balanced salts solution (Gibco BRL) and transferred to serum-free differentiation medium.
Construction of 3D Environment MLPCs were plated on DETA-coated glass coverslips (18 mm) in growth medium. At about 60% confluence, growth medium was replaced with pre-induction medium. […]
Phase-contrast images were taken with a commercial Nikon Coolpix 990 camera using the Zeiss Axiovert S100 microscope. Pictures were analyzed using Scion Image Software (Scion Corp., Frederick, Md.).
The morphological and immunocytochemical quantification was performed on undifferentiated stem cells or cells during various differentiation stages. […] All the marker-positive cells were counted, as well as the total number of cells in these views. At least three coverslips in each group were quantified and data were expressed as average±standard deviation (SD). Statistical differences between different experimental groups were analyzed by Student's t-test.

B1: EGF: growth factor in pre-induction and differentiation medium (protein, UniProt P01133 23-1207, looked up)
Pro-epidermal growth factor: PQHWSCPEGTLAGNGNSTCVGPAPFLIFSHGNSIFRIDTEGTNYEQLVVDAGVSVIMDFHYNEKRIYWVDLERQLLQRVFLNGSRQERVCNIEKNVSGMAINWINEEVIWSNQQEGIITVTDMKGNNSHILLSALKYPANVAVDPVERFIFWSSEVAGSLYRADLDGVGVKALLETSEKITAVSLDVLDKRLFWIQYNREGSNSLICSCDYDGGSVHISKHPTQHNLFAMSLFGDRIFYSTWKMKTIWIANKHTGKDMVRINLHSSFVPLGELKVVHPLAQPKAEDDTWEPEQKLCKLRKGNCSSTVCGQDLQSHLCMCAEGYALSRDRKYCEDVNECAFWNHGCTLGCKNTPGSYYCTCPVGFVLLPDGKRCHQLVSCPRNVSECSHDCVLTSEGPLCFCPEGSVLERDGKTCSGCSSPDNGGCSQLCVPLSPVSWECDCFPGYDLQLDEKSCAASGPQPFLLFANSQDIRHMHFDGTDYGTLLSQQMGMVYALDHDPVENKIYFAHTALKWIERANMDGSQRERLIEEGVDVPEGLAVDWIGRRFYWTDRGKSLIGRSDLNGKRSKIITKENISQPRGIAVHPMAKRLFWTDTGINPRIESSSLQGLGRLVIASSDLIWPSGITIDFLTDKLYWCDAKQSVIEMANLDGSKRRRLTQNDVGHPFAVAVFEDYVWFSDWAMPSVMRVNKRTGKDRVRLQGSMLKPSSLVVVHPLAKPGADPCLYQNGGCEHICKKRLGTAWCSCREGFMKASDGKTCLALDGHQLLAGGEVDLKNQVTPLDILSKTRVSEDNITESQHMLVAEIMVSDQDDCAPVGCSMYARCISEGEDATCQCLKGFAGDGKLCSDIDECEMGVPVCPPASSKCINTEGGYVCRCSEGYQGDGIHCLDIDECQLGEHSCGENASCTNTEGGYTCMCAGRLSEPGLICPDSTPPPHLREDDHHYSVRNSDSECPLSHDGYCLHDGVCMYIEALDKYACNCVVGYIGERCQYRDLKWWELRHAGHGQQQKVIVVAVCVVVLVMLLLLSLWGAHYYRTQKLLSKNPKNPYEESSRDVRSRRPADTEDGMSSCPQPWFVVIKEHQDLKNGGQPVAGEDGQAADGSMQPTSWRQEPQLCGMGTEQGCWIPVSSDKGSCPQVMERSFHMPSYGTQTLEGGVEKPHSLLSANPLWQQRALDPPHQMELTQ
modifications: Pro-epidermal growth factor
need of the growth factor for process formation: not essential
